In article PMC4288923:

Tests used:
[1] = molecular target: Slr1270 protein from Synechocystis 6803, refolded, C-terminal His tag (Synechocystis 6803); experiment: SDS-PAGE without boiling
[2] = molecular target: Slr1270 protein from Synechocystis 6803, refolded, C-terminal His tag (Synechocystis 6803); experiment: native gel or EMSA
[3] = molecular target: Slr1270 protein from Synechocystis 6803, refolded, C-terminal His tag (Synechocystis 6803); experiment: SEC

Measured: stoichiometry N

Slr1270 protein from Synechocystis 6803, refolded, C-terminal His tag (natural protein)
3: all assays above
